According to patent US20230038638A1, “COMPLEMENT FACTOR I-RELATED COMPOSITIONS AND METHODS” (published 2023):

Columns and labels:
[1] = biological target: T1, human C4b (human) (UniProt P0C0L5)
T1 sequence: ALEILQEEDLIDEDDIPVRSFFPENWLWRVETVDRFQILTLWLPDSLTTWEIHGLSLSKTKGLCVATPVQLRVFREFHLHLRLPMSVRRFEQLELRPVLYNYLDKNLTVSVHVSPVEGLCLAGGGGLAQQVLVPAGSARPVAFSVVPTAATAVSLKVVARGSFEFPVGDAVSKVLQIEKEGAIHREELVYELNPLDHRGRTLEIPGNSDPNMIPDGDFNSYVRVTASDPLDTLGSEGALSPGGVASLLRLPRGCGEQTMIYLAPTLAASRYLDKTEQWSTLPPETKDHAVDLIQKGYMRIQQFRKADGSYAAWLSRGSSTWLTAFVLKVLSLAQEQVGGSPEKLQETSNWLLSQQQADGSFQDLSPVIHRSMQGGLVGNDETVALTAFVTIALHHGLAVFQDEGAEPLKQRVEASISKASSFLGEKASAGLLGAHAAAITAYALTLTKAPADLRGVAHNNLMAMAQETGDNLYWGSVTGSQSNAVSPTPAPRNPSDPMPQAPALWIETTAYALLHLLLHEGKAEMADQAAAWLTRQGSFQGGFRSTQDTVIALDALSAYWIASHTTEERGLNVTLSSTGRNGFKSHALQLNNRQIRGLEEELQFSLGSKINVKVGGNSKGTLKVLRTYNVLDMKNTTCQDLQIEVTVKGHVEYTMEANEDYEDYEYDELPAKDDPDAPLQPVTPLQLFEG

[2] = biological target: soluble human C3b (human) (UniProt P01024)

| Substance | C4b Screen Ref Fold (fold vs CFI-HSA wild type) [1] | iC3b Screen Ref Fold (fold vs CFI-HSA wild type) [2] | iC3b Screen Ref Fold (fold of reference) [2] |
| --- | --- | --- | --- |
| CFI-HSA E457G; N531G; E461Q; R462K; F464Y; GGSSGG (SEQ ID NO: 6); CR1 (ccp1-3) (from UniProt P17927) (enzyme) | 0.46 | 0.14 | – |
| CFI-HSA E457G; N531G; E461Q; R462K; F464Y; GGSSGG (SEQ ID NO: 6); CR1 (ccp15-17) (from UniProt P17927) (enzyme) | 4.36 | 0.1 | – |
| CFI-HSA F399G (enzyme) | 0.05 | 0.65 | – |
| CFI-HSA F537G (enzyme) | 0.03 | 0.37 | – |
| CFI-HSA H370G (enzyme) | 0.13 | 0.52 | – |
| CFI-HSA K368E (enzyme) | 0.06 | 0.2 | – |
| CFI-HSA K368G (enzyme) | 0.24 | 0.16 | – |
| CFI-HSA K424G (enzyme) | 0.32 | 1.44 | – |
| CFI-HSA K424H (enzyme) | 0.53 | 1.46 | – |
| CFI-HSA K424M (enzyme) | 0.33 | 0.95 | – |
| CFI-HSA K424P (enzyme) | 0.33 | 1.05 | – |
| CFI-HSA K424Q (enzyme) | 0.47 | 1.27 | – |
| CFI-HSA variant I317D-R318D-R319D-K320D-R321K (enzyme) | – | 0.03 | – |
| CFI-HSA variant N446Q; N476Q; N518Q (enzyme) | – | 0.06 | – |
| CFI-HSA variant Y408D (enzyme) | – | 0.02 | – |
| CFI-HSA variant Y408E (enzyme) | – | – | 0.23 |
| CFI-HSA variant Y408K (enzyme) | – | 0.65 | – |
| CFI-HSA variant Y408T (enzyme) | – | 0.04 | – |
| CFI-HSA variant Y408W (enzyme) | – | – | 0.82 |

Next, values leading:

| C4b Screen Ref Fold (fold vs CFI-HSA wild type) [1] | iC3b Screen Ref Fold (fold vs CFI-HSA wild type) [2] | iC3b Screen Ref Fold (fold of reference) [2] | Substance |
| --- | --- | --- | --- |
| 4.22 | 1.67 | – | CFI-HSA E457G; N531G; E530Y (enzyme) |
| 0.03 | -0.02 | – | CFI-HSA H362G (enzyme) |
| 0.11 | 0.23 | – | CFI-HSA K423A (enzyme) |
| 0.31 | 0.33 | – | CFI-HSA K423D (enzyme) |
| 0.32 | 0.61 | – | CFI-HSA K423E (enzyme) |
| 0.15 | 0.69 | – | CFI-HSA K423G (enzyme) |
| 0.26 | 0.87 | – | CFI-HSA K424A (enzyme) |
| 0.27 | 1.15 | – | CFI-HSA K424D (enzyme) |
| 0.23 | 1.08 | – | CFI-HSA K424E (enzyme) |
| 0.35 | 1.04 | – | CFI-HSA K424F (enzyme) |
| 0.28 | 1.48 | – | CFI-HSA K424I (enzyme) |
| 0.28 | 0.91 | – | CFI-HSA K424L (enzyme) |
| 0.5 | 1.48 | – | CFI-HSA K424N (enzyme) |
| – | 0.64 | – | CFI-HSA variant K504Q (enzyme) |
| – | – | 0.51 | CFI-HSA variant T346R; K504E; E530R (enzyme) |
| – | – | 0 | CFI-HSA variant Y408V (enzyme) |
| – | 0.03 | – | CFI-HSA variant Y4081 (enzyme) |
